Measurements from the array DNA melting data of Ke et al..

Experiment: melting temperature; UV melt of duplexes

Row | Substance | Tm (sodium 0.07 M, strand 2 µM) [°C] | Tm (sodium 0.12 M, strand 2 µM) [°C] | Tm (sodium 0.22 M, strand 2 µM) [°C] | Tm (sodium 0.62 M, strand 2 µM) [°C] | Tm (sodium 1.02 M, strand 2 µM) [°C] | also measured
1 | ACTGGCGAGGATCCAGCGGTCA+TGACCGCTGGATCCTCGCCAGT ((((((((((((((((((((((+)))))))))))))))))))))) | – | – | – | – | – | Tm (sodium 0.12 M, strand 4.1 µM): 71.8 °C
2 | AGATCATATATATCGAT+ATCGATATATATGATCT (((((((((((((((((+))))))))))))))))) | – | – | – | – | – | Tm (sodium 0.12 M, strand 4 µM): 49.2 °C
3 | AGCAGTCCGCCACACCCTGA+TCAGGGTGTGGCGGACTGCT ((((((((((((((((((((+)))))))))))))))))))) | 66.5 | 69.9 | 74 | 76.9 | 78.5 | –
4 | AGCTGCAGTGGATGTGAGAA+TTCTCACATCCACTGCAGCT ((((((((((((((((((((+)))))))))))))))))))) | 59.7 | 63.5 | 67.6 | 71.3 | 73.1 | –
5 | ATAAATAAAGCTTTATTTAT+ATAAATAAAGCTTTATTTAT ((((((((((((((((((((+)))))))))))))))))))) | – | – | – | – | – | Tm (sodium 0.12 M, strand 7 µM): 46.2 °C
6 | ATAAATTAGGATCCATATAAAT+ATTTATATGGATCCTAATTTAT ((((((((((((((((((((((+)))))))))))))))))))))) | – | – | – | – | – | Tm (sodium 0.12 M, strand 5.8 µM): 47.7 °C
7 | ATACGCGAGGATCCAGCGCAAT+ATTGCGCTGGATCCTCGCGTAT ((((((((((((((((((((((+)))))))))))))))))))))) | – | – | – | – | – | Tm (sodium 0.12 M, strand 4 µM): 71.1 °C
8 | ATATATATGAATTCATATATAT+ATATATATGAATTCATATATAT ((((((((((((((((((((((+)))))))))))))))))))))) | – | – | – | – | – | Tm (sodium 0.12 M, strand 6 µM): 48.9 °C
9 | ATGCAATGCTACATATTCGC+GCGAATATGTAGCATTGCAT ((((((((((((((((((((+)))))))))))))))))))) | 55.2 | 59.5 | 62.9 | 67 | 68.9 | –
10 | ATGGGTGGGAGCCTCGGTAGCAGCC+GGCTGCTACCGAGGCTCCCACCCAT (((((((((((((((((((((((((+))))))))))))))))))))))))) | 70.7 | 74.5 | 78.2 | 81.6 | 83.4 | –
11 | CAGCCTCGTTCGCACAGCCC+GGGCTGTGCGAACGAGGCTG ((((((((((((((((((((+)))))))))))))))))))) | 67.2 | 70.7 | 74 | 77.7 | 78.1 | –
12 | CAGTGAGACAGCAATGGTCG+CGACCATTGCTGTCTCACTG ((((((((((((((((((((+)))))))))))))))))))) | 59.8 | 63.5 | 67 | 71.1 | 72.5 | –
13 | CAGTGGGCTCCTGGGCGTGCTGGTC+GACCAGCACGCCCAGGAGCCCACTG (((((((((((((((((((((((((+))))))))))))))))))))))))) | 72 | 75.6 | 79.2 | 82.6 | 83.4 | –
14 | CCATCATTGTGTCTACCTCA+TGAGGTAGACACAATGATGG ((((((((((((((((((((+)))))))))))))))))))) | 55.6 | 59.5 | 63.1 | 67.3 | 68.5 | –
15 | CCCTGCACTTTAACTGAATTGTTTA+TAAACAATTCAGTTAAAGTGCAGGG (((((((((((((((((((((((((+))))))))))))))))))))))))) | 57.4 | 61.4 | 65.6 | 70.1 | 72.5 | –
16 | CCGTGCGGTGTGTACGTTTTATTCATCATA+TATGATGAATAAAACGTACACACCGCACGG ((((((((((((((((((((((((((((((+)))))))))))))))))))))))))))))) | 63.9 | 68.3 | 71.8 | 76.5 | 77.6 | –
17 | CGGAATCCATGTTACTTCGGCTATC+GATAGCCGAAGTAACATGGATTCCG (((((((((((((((((((((((((+))))))))))))))))))))))))) | 60.9 | 64.7 | 68.7 | 73.3 | 74.8 | –
18 | CGTACTAGCGTTGGTCATGG+CCATGACCAACGCTAGTACG ((((((((((((((((((((+)))))))))))))))))))) | 59.6 | 63.1 | 66.6 | 70.5 | 71.1 | –
19 | CTCGTACCTTCCGGTCC+GGACCGGAAGGTACGAG (((((((((((((((((+))))))))))))))))) | – | – | – | – | – | Tm (sodium 0.1 M, strand 4 µM): 60.6 °C
20 | CTCGTACCTTTCCGGTCC+GGACCGGAAAGGTACGAG ((((((((((((((((((+)))))))))))))))))) | – | – | – | – | – | Tm (sodium 0.1 M, strand 4 µM): 61.7 °C
21 | CTGGTCTGGATCTGAGAACTTCAGG+CCTGAAGTTCTCAGATCCAGACCAG (((((((((((((((((((((((((+))))))))))))))))))))))))) | 62.1 | 65.8 | 69.6 | 74.2 | 75.6 | –

Row | Substance | Tm (sodium 0.07 M, strand 2 µM) [°C] | Tm (sodium 0.12 M, strand 2 µM) [°C] | Tm (sodium 0.22 M, strand 2 µM) [°C] | Tm (sodium 0.62 M, strand 2 µM) [°C] | Tm (sodium 1.02 M, strand 2 µM) [°C] | also measured
22 | CTTAAGATATGAGAACTTCAACTAATGTGT+ACACATTAGTTGAAGTTCTCATATCTTAAG ((((((((((((((((((((((((((((((+)))))))))))))))))))))))))))))) | 56.8 | 61.3 | 64.9 | 70.5 | 71.8 | –
23 | CTTCAACGGATCAGGTAGGACTGTGGTGGG+CCCACCACAGTCCTACCTGATCCGTTGAAG ((((((((((((((((((((((((((((((+)))))))))))))))))))))))))))))) | 67.6 | 71.7 | 74.7 | 78.8 | 80.1 | –
24 | GACCTGACGTGGACCGCTCCTGGGCGTGGT+ACCACGCCCAGGAGCGGTCCACGTCAGGTC ((((((((((((((((((((((((((((((+)))))))))))))))))))))))))))))) | 74.4 | 78.4 | 81.5 | 85.2 | 86.4 | –
25 | GAGATTGTTTCCCTTTCAAA+TTTGAAAGGGAAACAATCTC ((((((((((((((((((((+)))))))))))))))))))) | 49.3 | 52.8 | 57.6 | 62.6 | 65.3 | –
26 | GATGACGCTAGCTAGCTAGGAC+GTCCTAGCTAGCTAGCGTCATC ((((((((((((((((((((((+)))))))))))))))))))))) | – | – | – | – | – | Tm (sodium 0.15 M, strand 1.1 µM): 64 °C
27 | GCCCCTCCACTGGCCGACGGCAGCAGGCTC+GAGCCTGCTGCCGTCGGCCAGTGGAGGGGC ((((((((((((((((((((((((((((((+)))))))))))))))))))))))))))))) | 76.3 | 79.8 | 83.6 | 87.1 | 87.7 | –
28 | GCGGATTAGGATCCATATCGCG+CGCGATATGGATCCTAATCCGC ((((((((((((((((((((((+)))))))))))))))))))))) | – | – | – | – | – | Tm (sodium 0.12 M, strand 4 µM): 65.4 °C
29 | GCGGGCGAGGATCCAGCGCGCG+CGCGCGCTGGATCCTCGCCCGC ((((((((((((((((((((((+)))))))))))))))))))))) | – | – | – | – | – | Tm (sodium 0.12 M, strand 5.3 µM): 77.2 °C
30 | GTCATACGACTGAGTGCAACATTGTTCAAA+TTTGAACAATGTTGCACTCAGTCGTATGAC ((((((((((((((((((((((((((((((+)))))))))))))))))))))))))))))) | 62.7 | 66.8 | 70.8 | 75.9 | 76.9 | –
31 | GTGGTGGGCCGTGCGCTCTG+CAGAGCGCACGGCCCACCAC ((((((((((((((((((((+)))))))))))))))))))) | 69.2 | 72.7 | 76.2 | 79.6 | 81 | –
32 | GTTCACGTCCGAAAGCTCGAAAAAGGATAC+GTATCCTTTTTCGAGCTTTCGGACGTGAAC ((((((((((((((((((((((((((((((+)))))))))))))))))))))))))))))) | 64.3 | 68.2 | 72.1 | 77.1 | 78.7 | –
33 | TAACCATACTGAATACCTTTTGACG+CGTCAAAAGGTATTCAGTATGGTTA (((((((((((((((((((((((((+))))))))))))))))))))))))) | 56.5 | 60.2 | 64.3 | 68.9 | 71.3 | –
34 | TACTTCCAGTGCTCAGCGTA+TACGCTGAGCACTGGAAGTA ((((((((((((((((((((+)))))))))))))))))))) | 60.3 | 64.4 | 67.7 | 71.6 | 73.6 | –
35 | TAGTATATCGCAGCATCATACAGGC+GCCTGTATGATGCTGCGATATACTA (((((((((((((((((((((((((+))))))))))))))))))))))))) | 61.2 | 64.7 | 69.1 | 72.8 | 75 | –
36 | TAGTGGCGATTAGATTCTGC+GCAGAATCTAATCGCCACTA ((((((((((((((((((((+)))))))))))))))))))) | 57 | 60.6 | 64.8 | 69.1 | 71.2 | –
37 | TATGTATATTTTGTAATCAG+CTGATTACAAAATATACATA ((((((((((((((((((((+)))))))))))))))))))) | 44.4 | 47.7 | 52.6 | 57.6 | 61.2 | –
38 | TCAGTAGGCGTGACGCAGAGCTGGCGATGG+CCATCGCCAGCTCTGCGTCACGCCTACTGA ((((((((((((((((((((((((((((((+)))))))))))))))))))))))))))))) | 72.2 | 75.7 | 79.3 | 83.3 | 84.6 | –
39 | TCCACACGGTAGTAAAATTAGGCTT+AAGCCTAATTTTACTACCGTGTGGA (((((((((((((((((((((((((+))))))))))))))))))))))))) | 59.3 | 63.1 | 67.3 | 71.8 | 73.8 | –
40 | TGGATTCTACTCAACCTTAGTCTGG+CCAGACTAAGGTTGAGTAGAATCCA (((((((((((((((((((((((((+))))))))))))))))))))))))) | 59 | 63.1 | 67.1 | 71.3 | 73.6 | –
41 | TTATGTATTAAGTTATATAGTAGTAGTAGT+ACTACTACTACTATATAACTTAATACATAA ((((((((((((((((((((((((((((((+)))))))))))))))))))))))))))))) | 50.7 | 55 | 59.3 | 65.1 | 66.6 | –
